Measurements from patent publication US20240318215A1.

What was measured:
[1] = molecular target: pMag fused to C-terminal part of split T7 RNA polymerase, as carried on the pT7-Opto plasmid; assay: cell-based or functional assay
[2] = molecular target: pMag (F1) fused to second half of 563 T7RNAP non-star variant; assay: cell-based or functional assay
pMag (F1) fused to second half of 563 T7RNAP non-star variant, sequence (chain, as listed by the source mutant limits assumed): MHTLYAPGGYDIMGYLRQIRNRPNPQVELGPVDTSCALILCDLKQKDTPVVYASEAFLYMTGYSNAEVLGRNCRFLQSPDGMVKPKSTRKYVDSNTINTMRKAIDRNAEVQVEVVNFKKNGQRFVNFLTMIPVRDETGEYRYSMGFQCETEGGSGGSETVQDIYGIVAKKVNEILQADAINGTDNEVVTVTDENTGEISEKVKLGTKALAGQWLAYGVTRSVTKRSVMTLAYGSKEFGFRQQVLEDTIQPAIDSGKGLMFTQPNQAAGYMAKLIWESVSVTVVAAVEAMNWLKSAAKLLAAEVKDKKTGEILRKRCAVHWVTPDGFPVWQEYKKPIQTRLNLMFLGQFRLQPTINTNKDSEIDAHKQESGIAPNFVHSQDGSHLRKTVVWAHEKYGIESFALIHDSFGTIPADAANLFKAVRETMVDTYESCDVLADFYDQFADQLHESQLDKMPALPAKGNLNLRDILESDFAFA

pMag fused to C-terminal part of split T7 RNA polymerase, as carried on the pT7-Opto plasmid, sequence (chain, as listed by the source limits assumed): as the sequence (chain, as listed by the source mutant limits assumed) above, with R225S counted along it

- average pixel intensity (16-bit fluorescence scan) of the blue-light-exposed region of the pT7-Opto pellicle (pixel intensity (16-bit)) [1]: 10400
- average pixel intensity (16-bit fluorescence scan) of the unexposed region of the pT7-Opto pellicle (pixel intensity (16-bit)) [1]: 5520
- average red fluorescence of the light-exposed against the unexposed area of a K. rhaeticus pT7-Opto pellicle, fluorescence scan, 0.1% arabinose [1]: 1.8 fold
- change in mCherry blue light response from dark to bright, flow cytometry, 96-well plate, 0.1% (w/v) arabinose [1]: 2.57 fold
- change in mCherry blue light response from dark to bright, flow cytometry, 96-well plate, no arabinose [1]: 2.57 fold
- fold change of mCherry between dark and light states, flow cytometry, 96-well plate, 1% (w/v) arabinose [1]: 1.33 fold
- fold change of mCherry between dark and light states, flow cytometry, 96-well plate, 10% (w/v) arabinose [1]: 1.04 fold
- mCherry expression, blue light against dark culture, flow cytometry, K. rhaeticus pT7-Opto, 0.1% arabinose [1]: 7.5 fold
- increase of Tyr1 production (initial rate of melanin production, OD405) in blue light, strain Opto-T7RNAP(563-F1) with pT7 tyr1, 1 mg/mL arabinose [2]: 5.35 fold
- increase of mCherry production in response to blue light, plate reader, strain Opto-T7RNAP(563-F1) with pT7 mCherry, 10 mg/mL arabinose [2]: 7.4 fold
B1: N-terminal part of split T7 RNA polymerase (563 split) fused to nMag (protein)
chain: MNTINIAKNDFSDIELAAIPFNTLADHYGERLAREQLALEHESYEMGEARFRKMFERQLKAGEVADNAAAKPLITTLLPKMIARINDWFEEVKAKRGKRPTAFQFLQEIKPEAVAYITIKTTLACLTSADNTTVQAVASAIGRAIEDEARFGRIRDLEAKHFKKNVEEQLNKRVGHVYKKAFMQVVEADMLSKGLLGGEAWSSWHKEDSIHVGVRCIEMLIESTGMVSLHRQNAGVVGQDSETIELAPEYAEAIATRAGALAGISPMFQPCVVPPKPWTGITGGGYWANGRRPLALVRTHSKKALMRYEDVYMPEVYKAINIAQNTAWKINKKVLAVANVITKWKHCPVEDIPAIEREELPMKPEDIDMNPEALTAWKRAAAAVYRKDKARKSRRISLEFMLEQANKFANHKAIWFPYNMDWRGRVYAVSMFNPQGNDMTKGLLTLAKGKPIGKEGYYWLKIHGANCAGVDKVPFPERIKFIEENHENIMACAKSPLENTWWAEQDSPFCFLAFCFEYAGVQHHGLSYNCSLPLAFDGSCSGIQHFSAMLRDEVGGRAVNLLPGGSGGHTLYAPGGYDIMGYLDQIGNRPNPQVELGPVDTSCALILCDLKQKDTPIVYASEAFLYMTGYSNAEVLGRNCRFLQSPDGMVKPKSTRKYVDSNTINTIRKAIDRNAEVQVEVVNFKKNGQRFVNFLTIIPVRDETGEYRYSMGFQCETE
